The values that follow come from US20230000834A1, “PHYSIOLOGICALLY ACTIVE SUBSTANCE BOUND TO BIOTIN MOIETY, AND COMPOSITION FOR ORAL ADMINISTRATION INCLUDING SAME” (priority 2019, published 2023).

One data set is described as follows: in vivo. As to conditions: SD, rat.
Another data set concerns blood glucose. Kind of data set: Intraperitoneal glucose tolerance test after oral administration, Embodiments 5 and 6. In kind it is in vivo, mice (C57BL/6). As to conditions: C57BL/6 mice; 500 μg/kg oral at -20 minutes; glucose 2 g/kg intraperitoneal. The procedure: To confirm glucose tolerance, Embodiments 5 and 6 were orally administered to mice, and blood glucose regulation efficacy was measured through an intraperitoneal glucose tolerance test.
To measure peritoneal glucose tolerance in an animal model, 100 μl of specimen (500 μg/kg, SEQ. ID. No. 2) was orally administered at −20 minutes to 9-week-old male mice (C57BL/6), followed by intraperitoneal injection of 200 μl glucose (2 g/kg) and observation of blood glucose changes in blood collected from the tail vein at −20, 0, 20, 40, 60, 90 and 120 minutes.
FIG. 6 is a graph illustrating blood glucose change after administering glucose to each specimen.

Non-standard residues stand in square brackets, D forms with d. No end group written: not given here. biotin moiety B2 = not defined here; biotin moiety B3 = not defined here; Aib = CC(C)(N)C(=O)O

Experimental for in vivo: The specimens were administered by subcutaneous injection and orally in amounts of 20 μg/kg to experimental rats (SD rat) with a body weight of approximately 200 g, then blood serum was isolated and enzyme-linked immunosorbent assays were carried out to measure change in blood drug concentration over time. Blood samples were collected from the jugular vein. A polypeptide having the amino acid sequence of SEQ. ID. No. 6 was used as the control.

`CC[C@H](C)[C@H](NC(=O)[C@H](CCC(=O)O)NC(=O)[C@H](CO)NC(=O)[C@@H](NC(=O)[C@@H](N)CO)C(C)C)C(=O)N[C@@H](CCC(N)=O)C(=O)N[C@@H](CC(C)C)C(=O)N[C@@H](CCSC)C(=O)N[C@@H](Cc1c[nH]cn1)C(=O)N[C@@H](CC(N)=O)C(=O)N[C@@H](CC(C)C)C(=O)NCC(=O)N[C@@H](CCCCN)C(=O)N[C@@H](Cc1c[nH]cn1)C(=O)N[C@@H](CC(C)C)C(=O)N[C@@H](CC(N)=O)C(=O)N[C@@H](CO)C(=O)N[C@@H](CCSC)C(=O)N[C@@H](CCC(=O)O)C(=O)N[C@@H](CCCNC(=N)N)C(=O)N[C@H](C(=O)N[C@@H](CCC(=O)O)C(=O)N[C@@H](Cc1c[nH]c2ccccc12)C(=O)N[C@@H](CC(C)C)C(=O)N[C@@H](CCCNC(=N)N)C(=O)N[C@@H](CCCCN)C(=O)N[C@@H](CCCCN)C(=O)N[C@@H](CC(C)C)C(=O)N[C@@H](CCC(N)=O)C(=O)N[C@@H](CC(=O)O)C(=O)N[C@H](C(=O)N[C@@H](Cc1c[nH]cn1)C(=O)N[C@@H](CC(N)=O)C(=O)N[C@@H](Cc1ccccc1)C(=O)N[C@@H](CSC1CC(=O)N(CCC(=O)NC(CCCCNC(=O)CCCCC2SCC3NC(=O)NC32)C(=O)NC(CCCCNC(=O)CCCCC2SCC3NC(=O)NC32)C(N)=O)C1=O)C(=O)O)C(C)C)C(C)C` (stereo partly shown) [Embodiment 8] registered a bioavailability in the data set “in vivo” of 7.8%. As to `CC[C@H](C)[C@H](NC(=O)[C@H](CCC(=O)O)NC(=O)[C@H](CO)NC(=O)[C@@H](NC(=O)[C@@H](N)CO)C(C)C)C(=O)N[C@@H](CCC(N)=O)C(=O)N[C@@H](CC(C)C)C(=O)N[C@@H](CCSC)C(=O)N[C@@H](Cc1c[nH]cn1)C(=O)N[C@@H](CC(N)=O)C(=O)N[C@@H](CC(C)C)C(=O)NCC(=O)N[C@@H](CCCCN)C(=O)N[C@@H](Cc1c[nH]cn1)C(=O)N[C@@H](CC(C)C)C(=O)N[C@@H](CC(N)=O)C(=O)N[C@@H](CO)C(=O)N[C@@H](CCSC)C(=O)N[C@@H](CCC(=O)O)C(=O)N[C@@H](CCCNC(=N)N)C(=O)N[C@H](C(=O)N[C@@H](CCC(=O)O)C(=O)N[C@@H](Cc1c[nH]c2ccccc12)C(=O)N[C@@H](CC(C)C)C(=O)N[C@@H](CCCNC(=N)N)C(=O)N[C@@H](CCCCN)C(=O)N[C@@H](CCCCN)C(=O)N[C@@H](CC(C)C)C(=O)N[C@@H](CCC(N)=O)C(=O)N[C@@H](CC(=O)O)C(=O)N[C@H](C(=O)N[C@@H](Cc1c[nH]cn1)C(=O)N[C@@H](CC(N)=O)C(=O)N[C@@H](Cc1ccccc1)C(=O)N[C@@H](CSC1CC(=O)N(CCC(=O)NC(CCCCNC(=O)CCCCC2SCC3NC(=O)NC32)C(=O)NC(CCCCNC(=O)CCCCC2SCC3NC(=O)NC32)C(=O)NC(CCCCNC(=O)CCCCC2SCC3NC(=O)NC32)C(N)=O)C1=O)C(=O)O)C(C)C)C(C)C` (stereo partly shown) [Embodiment 9], in the data set “in vivo”, the bioavailability is 4.9%. Regarding “Embodiment 5: polypeptide of SEQ. ID. No. 8 bonded to biotin moiety B2 at C30 (H[Aib]QGTFTSDYSKYLDEQAAKEFVQWLMNTC(biotin moiety B2); reading uncertain)”, the “glucose regulating ability (blood glucose change, FIG. 6)” value in the data set with blood glucose was “glucose regulating ability”. On the same count and under the same terms, the entry for “Embodiment 6: polypeptide of SEQ. ID. No. 8 bonded to biotin moiety B3 at C30 (H[Aib]QGTFTSDYSKYLDEQAAKEFVQWLMNTC(biotin moiety B3); reading uncertain)” is “glucose regulating ability”.
